From doi:10.1101/2021.03.07.432812

What was measured:
[1] = target: Y177A, W151A, and F141A; assay: ITC
[2] = target: Spindlin1_(50-262) bound to DOCpep(1-3) (UniProt Q9Y657); assay: ITC

| Substance | fold reduction of binding against wild-type Spindlin1 [1] | fold decrease of binding affinity in the presence of DOCpep(1-3) [2] |
| --- | --- | --- |
| DOCpep2, SPIN•DOC 228-239 peptide (from UniProt Q9BUA3 228-239) | 1.5 to 3 fold | – |
| histone H3 1-20 K4me3 peptide (from UniProt P68431 2-21) | – | 18 fold |
